Test results published in the RNAGym collection of RNA variant scans (doi:10.7554/elife.80360).

B1: CPEB3 Ribozyme (parent)
chain: GGGGGCCACAGCAGAAGCGUUCACGUCGCGGCCCCUGUCAGAUUCUGGUGAAUCUGCGAAUUCUGCUGU

Variants of: B1
Assay: self-cleavage, relative activity (ratio to wild type); higher = more cleavage; co-transcriptional

| Variant | self-cleavage |
| --- | --- |
| U49A C57A | 0.273 |
| U49A C57G | 0.346 |
| U49G G68U | 1.01 |
| U49A U64C | 0.919 |
| U49A U64G | 0.835 |
| G50U A60U | 0.515 |
| U49A G58C | 1.02 |
| U49A G58U | 0.972 |
| G50U A59G | 1.04 |
| G50U A59U | 0.834 |
| G50C G68C | 0.964 |
| G50C G68U | 0.973 |
| G50C U62A | 0.968 |
| G50C U62C | 0.763 |
| G50C U62G | 0.755 |
| U49A U69G | 1.06 |
| U49G G65U | 0.787 |
| U49G G65C | 0.607 |
| G50C C54U | 0.921 |
| G50C C54G | 0.654 |
| G48U U53G | 0.94 |
| G48U U53C | 1.04 |
| G50A C57G | 0.301 |
| G50C U69G | 1.06 |

| Variant | self-cleavage |
| --- | --- |
| G50C U69A | 0.978 |
| G50C G65C | 0.585 |
| G50C G65A | 0.885 |
| U49C A51C | 0.981 |
| U49C A51U | 0.887 |
| U49C U69G | 1.05 |
| U49C U69C | 1.04 |
| U49C U69A | 1.04 |
| G50A A51G | 0.978 |
| G50A A51U | 0.987 |
| G50A U62C | 0.949 |
| G50A U62G | 0.959 |
| G50A U62A | 0.986 |
| G48U | 0.999 |
| U49A U67A | 1.05 |
| G48U G56A | 0.945 |
| G48U G56C | 0.865 |
| G48U G56U | 0.994 |
| G50A C54A | 0.81 |
| G48U G68C | 1.05 |
| G48U G68A | 1.04 |
| G48U G68U | 1.04 |
| U49A A51U | 1 |
| G48U C57A | 0.316 |

| Variant | self-cleavage |
| --- | --- |
| G50U A52U | 0.94 |
| G50U A52C | 0.979 |
| U49C U55C | 0.795 |
| U49C U55A | 0.936 |
| G48U A51G | 0.959 |
| G48U A51U | 1 |
| G48U A51C | 0.978 |
| A51C A52C | 0.949 |
| A51C A52G | 0.914 |
| U49C A60C | 0.354 |
| U49C A60U | 0.535 |
| U49A C63G | 0.878 |
| U49A C63A | 0.943 |
| G48U U64A | 0.96 |
| G48U U64G | 0.955 |
| G48U U64C | 0.876 |
| G48U U61C | 0.905 |
| G48U U61A | 0.924 |
| U49C U64C | 0.907 |
| U49C U67G | 0.969 |
| U49C U67A | 0.946 |
| U49C U67C | 0.986 |
| G50U U69A | 0.99 |
| G50U U69C | 1.09 |

| Variant | self-cleavage |
| --- | --- |
| G50U U69G | 1.05 |
| U49G C66G | 0.908 |
| U49G C66U | 0.98 |
| G48U A60G | 0.979 |
| G48U A60C | 0.362 |
| G48C G68A | 0.971 |
| G50A G68C | 1.02 |
| G50A G68U | 1.02 |
| G50A U55A | 0.912 |
| G48C U55A | 1 |
| A51C C66A | 0.628 |
| A51C C66U | 0.937 |
| A51C C66G | 0.777 |
| G48C G56C | 0.778 |
| G48C G56A | 0.988 |
| G48C U49G | 1.06 |
| G48C U49C | 0.993 |
| G48C U49A | 0.976 |
| U49G G50A | 1.02 |
| G50C A52C | 0.946 |
| G50C A52G | 0.985 |
| G50A G65U | 0.882 |
| G50A G65A | 0.901 |
| G50U U64A | 0.954 |

| Variant | self-cleavage |
| --- | --- |
| G50A U53G | 0.9 |
| G50A U53C | 0.949 |
| A51C G68U | 1.01 |
| A51C G68C | 0.996 |
| A51C G68A | 0.961 |
| G50A U64A | 0.937 |
| A51C | 0.989 |
| G50A C66U | 1.01 |
| G48C U69C | 1.06 |
| G50C A51U | 0.942 |
| G48C U67A | 1.01 |
| G48C U67G | 1.04 |
| G48C U67C | 0.998 |
| G50A G56A | 0.909 |
| U49C A52G | 0.972 |
| U49C A52C | 1.03 |
| U49C A52U | 0.93 |
| A51C A59G | 0.96 |
| A51C A59U | 0.742 |
| A51C A59C | 0.658 |
| G48U U69C | 1.04 |
| G48U U69A | 1.01 |
| G48U U69G | 1.05 |
| G48C G65A | 0.926 |

| Variant | self-cleavage |
| --- | --- |
| G48C G65U | 0.869 |
| G48C G65C | 0.775 |
| G48U G50A | 1.03 |
| G48U G50U | 0.99 |
| G48U G50C | 1.01 |
| A51C A60U | 0.468 |
| A51C A60G | 0.85 |
| G50U U53A | 0.999 |
| G50A U69C | 1.07 |
| G50A U69G | 1.06 |
| G50C U61G | 0.526 |
| G50C U61A | 0.823 |
| G50C U61C | 0.762 |
| U49C G58A | 0.911 |
| U49C G58U | 0.988 |
| G48U C54G | 1.03 |
| U49C U61G | 0.829 |
| G50A A52C | 1.04 |
| G50A A52U | 0.993 |
| A51C U55A | 0.643 |
| G50A U61A | 0.862 |
| G50A U61C | 0.799 |
| G50C C63G | 0.738 |
| G50C C63A | 0.813 |

| Variant | self-cleavage |
| --- | --- |
| G50C C63U | 0.97 |
| G50U G65A | 0.953 |
| G50C G56A | 0.831 |
| G50C G56U | 0.842 |
| G50A C63A | 0.856 |
| G50A C63G | 0.859 |
| G50U U67C | 1.01 |
| U49A U61G | 0.904 |
| U49A U61A | 0.979 |
| U49G G58A | 0.912 |
| U49A A59C | 0.798 |
| U49A A59G | 0.995 |
| U49A A59U | 0.85 |
| U49C G56C | 0.778 |
| G48U C63A | 0.956 |
| G48U C63U | 1.03 |
| G48U C63G | 0.878 |
| U49G A60U | 0.432 |
| U49G A60G | 0.948 |
| G48U C66A | 0.923 |
| G48U C66U | 0.978 |
| G48C C66G | 0.934 |
| G48C C66A | 0.91 |
